# Reference: the supplement of paper PMC10724198
# ± gives the standard deviation of the averaged measurements.
# Experiments:
# Saccharomyces cerevisiae [1] = test: protein stability index of tFT-peptide fusion (C-terminal peptide) (PSI (0-1 scale)); higher = more stable (slower turnover)
# Procedure: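 MPS profiling in S. cerevisiae of the tFT-X12 degron library: putative degron peptides plus stable controls, 12 aa, fused to the C-terminus of a sfGFP-mCherry timer. Cells are FACS-sorted into 8 mCherry/sfGFP bins and deep-sequenced. PSI runs from 0 (unstable) to 1 (stable). Backgrounds are wild type, das1Δ and doa10Δ at 30 °C, and wild type, das1Δ, cdc34-1 and cdc53-1 at 37 °C; 2-3 technical replicates each.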
# Saccharomyces cerevisiae [2] = test: as above; conditions: genetic background: wild type; temperature: 30 C
# [3] = genetic background: cdc34-1, temperature: 37 C
# [4] = genetic background: cdc53-1, temperature: 37 C
# [5] = genetic background: das1 deletion, temperature: 30 C
# [6] = genetic background: das1 deletion, temperature: 37 C
# [7] = genetic background: doa10 deletion, temperature: 30 C
# [8] = genetic background: wild type, temperature: 30 C
# [9] = genetic background: wild type, temperature: 37 C
# 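Also: PSI is a weighted mean of sequencing reads over stability bins, variants kept only with over 10 reads, mCherry proximal and sfGFP distal, peptide attached via GGGS linker.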
Sequence,protein stability index (Saccharomyces cerevisiae [1]; [3]),protein stability index (Saccharomyces cerevisiae [1]; [4]),protein stability index (Saccharomyces cerevisiae [1]; [5]),protein stability index (Saccharomyces cerevisiae [1]; [6]),protein stability index (Saccharomyces cerevisiae [1]; [7]),protein stability index (Saccharomyces cerevisiae [1]; [8]),protein stability index (Saccharomyces cerevisiae [1]; [9]),protein stability index (Saccharomyces cerevisiae [2])
LSVVVLVLCVLL,0.285 ± 0.028,0.403 ± 0.02,0.279 ± 0.04,0.42 ± 0.027,0.268 ± 0.023,0.283 ± 0.023,0.428 ± 0.082,0.353 ± 0.033
LFVPVFSFGFVC,0.485 ± 0.0071,0.558 ± 0.0077,0.415 ± 0.027,0.589 ± 0.009,0.121 ± 0.02,0.145 ± 0.014,0.237 ± 0.015,0.226 ± 0.011
FCGLLGVCLVMG,0.208 ± 0.042,0.298 ± 0.006,0.243 ± 0.032,0.389 ± 0.013,0.185 ± 0.016,0.221 ± 0.03,0.354 ± 0.011,0.326 ± 0.032
LFYVCPFVCFLC,0.554 ± 0.044,0.6288 ± 0.001,0.516 ± 0.017,0.61052 ± 9.9e-05,0.307 ± 0.0078,0.335 ± 0.026,0.438 ± 0.033,0.324 ± 0.058
GCILSLCYAVST,0.555 ± 0.051,0.569 ± 0.024,0.332 ± 0.026,0.534 ± 0.014,0.296 ± 0.0074,0.318 ± 0.018,0.523 ± 0.013,0.389 ± 0.016
VNRRCWISRTLP,0.599 ± 0.023,0.716 ± 0.0041,0.645 ± 0.024,0.713 ± 0.012,0.137 ± 0.039,0.174 ± 0.04,0.289 ± 0.058,0.258 ± 0.065
RGLLLKILIASG,0.376 ± 0.029,0.463 ± 0.034,0.305 ± 0.019,0.48 ± 0.0095,0.188 ± 0.012,0.213 ± 0.026,0.382 ± 0.0086,0.237 ± 0.081
AWWMALAVPIVA,0.02 ± 0.0012,0.0219 ± 0.0076,0.103 ± 0.025,0.0676 ± 0.013,0.0817 ± 0.02,0.1 ± 0.023,0.062 ± 0.00098,0.0514 ± 0.042
ARWNTDRRRRQL,0.6089 ± 0.0047,0.711 ± 0.024,0.688 ± 0.045,0.7022 ± 0.0017,0.236 ± 0.0035,0.253 ± 0.034,0.502 ± 0.025,0.421 ± 0.017
FSIFFFLLPSSL,0.539 ± 0.03,0.559 ± 0.0082,0.448 ± 0.017,0.604 ± 0.0097,0.443 ± 0.028,0.441 ± 0.025,0.5593 ± 0.0021,0.464 ± 0.042
FSRPTYYFIRHS,0.629 ± 0.048,0.696 ± 0.03,0.658 ± 0.038,0.69 ± 0.011,0.26 ± 0.021,0.272 ± 0.058,0.475 ± 0.048,0.403 ± 0.029
ILLHSFFSFYLL,0.484 ± 0.0054,0.503 ± 0.0068,0.508 ± 0.027,0.5933 ± 0.0054,0.289 ± 0.009,0.269 ± 0.023,0.419 ± 0.006,0.30744 ± 1.3e-05
AMFQLRLLVGSV,0.489 ± 0.036,0.508 ± 0.018,0.386 ± 0.037,0.5436 ± 0.0049,0.36 ± 0.016,0.391 ± 0.0056,0.5001 ± 0.0027,0.499 ± 0.033
FGLRVHPIVFIF,0.289 ± 0.032,0.269 ± 0.0053,0.374 ± 0.016,0.488 ± 0.018,0.0775 ± 0.022,0.0769 ± 0.016,0.0909 ± 0.047,0.128 ± 0.034
EMPRLSKAIRVT,0.5407 ± 0.00036,0.5702 ± 0.0053,0.371 ± 0.026,0.603 ± 0.011,0.279 ± 0.0047,0.314 ± 0.028,0.4961 ± 0.0028,0.44 ± 0.029
VLVVVRSLSFLS,0.405 ± 0.065,0.51 ± 0.011,0.347 ± 0.025,0.534 ± 0.015,0.308 ± 0.013,0.31 ± 0.023,0.496 ± 0.013,0.382 ± 0.019
LSLWPIFGIIYC,0.46 ± 0.035,0.4637 ± 0.0007,0.357 ± 0.024,0.516 ± 0.013,0.332 ± 0.011,0.364 ± 0.019,0.513 ± 0.019,0.4508 ± 0.0019
GGVVGRPWWYVG,0.694 ± 0.023,0.79439 ± 0.00012,0.677 ± 0.014,0.795 ± 0.013,0.266 ± 0.015,0.301 ± 0.015,0.605 ± 0.017,0.425 ± 0.031
LFLLFLCLSSLF,0.561 ± 0.0098,0.584 ± 0.012,0.487 ± 0.02,0.591 ± 0.032,0.448 ± 0.016,0.436 ± 0.035,0.5205 ± 0.0021,0.435 ± 0.021
DFPGDIILRLIA,0.576 ± 0.041,0.748 ± 0.044,0.635 ± 0.014,0.728 ± 0.025,0.139 ± 0.0097,0.155 ± 0.0082,0.214 ± 0.069,0.207 ± 0.11

Sequence,protein stability index (Saccharomyces cerevisiae [1]; [3]),protein stability index (Saccharomyces cerevisiae [1]; [4]),protein stability index (Saccharomyces cerevisiae [1]; [5]),protein stability index (Saccharomyces cerevisiae [1]; [6]),protein stability index (Saccharomyces cerevisiae [1]; [7]),protein stability index (Saccharomyces cerevisiae [1]; [8]),protein stability index (Saccharomyces cerevisiae [1]; [9]),protein stability index (Saccharomyces cerevisiae [2])
LPFFSFSPWWFY,0.773 ± 0.042,0.808 ± 0.026,0.736 ± 0.04,0.817 ± 0.029,0.209 ± 0.036,0.24 ± 0.036,0.497 ± 0.018,0.262 ± 0.033
DPPRPIMRIHMI,0.553 ± 0.065,0.651 ± 0.042,0.671 ± 0.059,0.719 ± 0.016,0.115 ± 0.021,0.111 ± 0.015,0.171 ± 0.027,0.181 ± 0.0027
FFYVFPFFIFRF,0.338 ± 0.046,0.31 ± 0.031,0.364 ± 0.04,0.521 ± 0.017,0.505 ± 0.025,0.362 ± 0.058,0.449 ± 0.0095,0.406 ± 0.065
FFATFVPSFLLC,0.606 ± 0.023,0.674 ± 0.048,0.556 ± 0.02,0.6776 ± 0.00086,0.268 ± 0.0089,0.305 ± 0.022,0.511 ± 0.021,0.407 ± 0.033
QCLSYFFPVPVA,0.073 ± 0.042,0.0838 ± 0.012,0.186 ± 0.03,0.227 ± 0.0065,0.147 ± 0.014,0.182 ± 0.02,0.192 ± 0.018,0.258 ± 0.035
PLFPLLGLLFFF,0.595 ± 0.029,0.6147 ± 0.0041,0.513 ± 0.032,0.592 ± 0.02,0.472 ± 0.032,0.496 ± 0.039,0.558 ± 0.018,0.461 ± 0.046
AGGLLIGSVGVG,0.434 ± 0.013,0.468 ± 0.0094,0.4439 ± 0.0038,0.468 ± 0.0066,0.4523 ± 0.0042,0.4436 ± 0.0017,0.4604 ± 0.0028,0.45 ± 0.008
YVASSWRHCFII,0.5016 ± 0.0016,0.657 ± 0.039,0.658 ± 0.022,0.724 ± 0.039,0.145 ± 0.012,0.152 ± 0.014,0.269 ± 0.023,0.221 ± 0.039
PFFFSFILVLFW,0.172 ± 0.0087,0.172 ± 0.036,0.219 ± 0.0092,0.286 ± 0.034,0.2355 ± 0.0021,0.186 ± 0.035,0.244 ± 0.02,0.264 ± 0.028
CVPGPRWWYHSA,0.671 ± 0.031,0.755 ± 0.015,0.685 ± 0.031,0.775 ± 0.011,0.233 ± 0.0045,0.272 ± 0.019,0.53465 ± 0.00023,0.446 ± 0.0059
LGFFPSPVLCVF,0.104 ± 0.056,0.104 ± 0.027,0.197 ± 0.024,0.209 ± 0.0036,0.171 ± 0.0087,0.193 ± 0.018,0.175 ± 0.0038,0.275 ± 0.02
FCLLRYPFVGVL,0.625 ± 0.047,0.683 ± 0.025,0.554 ± 0.022,0.677 ± 0.025,0.272 ± 0.0032,0.318 ± 0.0089,0.514 ± 0.0069,0.415 ± 0.013
ASSSPAPYAPYT,0.7006 ± 0.0052,0.7559 ± 0.0043,0.647 ± 0.031,0.76 ± 0.029,0.634 ± 0.03,0.642 ± 0.025,0.744 ± 0.017,0.635 ± 0.23
TFVGWIVWLCGS,0.537 ± 0.026,0.621 ± 0.0073,0.487 ± 0.033,0.6164 ± 0.0052,0.216 ± 0.0069,0.258 ± 0.022,0.456 ± 0.0097,0.331 ± 0.018
FFCYFFEFFICG,0.326 ± 0.054,0.419 ± 0.013,0.339 ± 0.028,0.468 ± 0.0082,0.337 ± 0.015,0.323 ± 0.011,0.441 ± 0.025,0.382 ± 0.017
RKRKKISEIIAI,0.664 ± 0.054,0.708 ± 0.075,0.589 ± 0.036,0.69 ± 0.039,0.519 ± 0.037,0.572 ± 0.041,0.637 ± 0.003,0.52 ± 0.047
HLLMLAMVGFQC,0.5752 ± 0.0029,0.688 ± 0.0015,0.475 ± 0.038,0.619 ± 0.02,0.424 ± 0.0061,0.454 ± 0.022,0.583 ± 0.025,0.487 ± 0.017
PFFHVFLLLLLI,0.153 ± 0.011,0.1359 ± 0.00032,0.188 ± 0.022,0.258 ± 0.0067,0.313 ± 0.021,0.154 ± 0.017,0.213 ± 0.0042,0.195 ± 0.0064
RDGAHFLLILVC,0.0425 ± 0.0098,0.0913 ± 0.022,0.176 ± 0.033,0.2536 ± 0.0015,0.088 ± 0.025,0.125 ± 0.025,0.154 ± 0.019,0.203 ± 0.059
